Results from the nanobody polyreactivity screen of Harvey et al. (2022).

assay: yeast display, Sf9 membrane polyspecificity reagent, FACS + sequencing; frameworks hold sequencing errors
Method in brief: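 A synthetic nanobody library was expressed on Saccharomyces cerevisiae BJ5465 by galactose induction for 36–48 hours. The library was stained for 1 hour at 4 °C with 10% biotinylated, detergent-solubilized Sf9 membrane reagent and enriched with streptavidin microbeads before FACS. Low and high (top ~1%) gates were set on anti-HA fluorescence for expression and streptavidin fluorescence for reagent binding, and each polyreactivity label reflects the gate of origin.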

| Sequence | polyreactivity (PSR sort gate) |
| --- | --- |
| QVQLVESGGGLVQAGGSLRLSCAASGRIFGGNAMGWYRQAPGKERELVAAINSSGGRTYYADSVKGRFTISRDNAKNTVYLQMNSLKPEDTAVYYCAARVGGNWYDYWGQGTQVTVSS | high polyreactivity |
| QVQLVESGGGLVQAGGSLRLSCAASGSIFYFNAMGWYRQAPGKERELVARISGSSGRTYYADSVKGRFTISRDNAKNTVYLQMNSLKPEDTAVYYCAARYYTSATMDYWGQGTQVTVSS | high polyreactivity |
| QVQLVESGGGLVQAGGSLRLSCAASGFTFYRYTMGWYRQAPGIYRELVAAISSGDSTYYADSVKGRFTISRDNAKNTVYLQMNSLKPEDTAVYYCAARQYSRGAIVYYWGQGTQVTVSS | high polyreactivity |
| QVQLVESGGGLVQAGGSLRLSCAASGLIFEYYAMGWYRQAPGKERELGAAISGSGGSTYYADSVKGRFTISRDNAKNTVSLQMNSRKPEDTAVDYCNVVGYRWSEFDYWGQGTQVTVSS | low polyreactivity |
| QVQLVESGGGLVQAGGSLRIRCAASGSIFGFYALGWSRHAPGKERELVASISWRGSRTYYADSVKGRFTISRDNAKNTVYLQMNSLKPEDSAVYYCNAVAYVSSPQYVSTATGYGYWGQGTQVTVSS | high polyreactivity |
| QVQLVESGGGLVQAGGSLRLSCAASGSTFRYYAMGWYRQAPGKERELVAANTYRATSTYYADSVKGRFTISRDNAKNTVYLQMNSLKPEDTAVYYCAAYSTYSRYDYWGQGTQVTVSS | high polyreactivity |
| QVQLVESGGGLVQAGGSLRLSCAASGRTCVGNAMGWYRQAPGKERELVAAIRRGGDSTYYADSVKGRFTISRDNAKNTVYLQMNSLKPEDTAVSYCNAVSLQPYRGGFDYWGQGTQVTVSS | low polyreactivity |
| QVQLVESGGGLVQAGGSLRLSCAASGSTFAYYAMGWYRQAPGKEREFVAVINWRGGSTYYADSVKGRFTISRDNAKNTVYLQMNSLKQEDTAVYYCNGRSGGYYYGFDYWGQGTQVTVSS | low polyreactivity |
| QVQLVESGGGLVQAGGSLRLSCAASGLIFNLYAMGWYSQAPGKEREFVATITGIGGSTYYADSVKGRFTISRDNAKNTVYLQMNSLKPQDTAVYYCAADAWFLPYNYWGQGTQVTVSS | low polyreactivity |
| QVQLVESGGGLVQAGGSLRLSCAASGIIFTVYDMGWYRQPPGKERELVAAITWSGGSTYYADSVKGRFTISRDNAKNTVYLQMNSLKPEDTAVYYCIKVGRVWDVETDGDYDYWGQGTQVTVSS | low polyreactivity |
| QVQLVESGGGLLQAGGSLRLSCAASGRTFVWNAKGWYRQAPGKERELVAPITNDGSTNYADSVKGRFTISRDNAKNTVYLQMNSLKPEDTAVYYCAKRPRGSRIVPGGYDSWGQGTQVTVSS | low polyreactivity |
| QVQLVESGGGLVQAGGSLRLSCAASGSIFQAYAMGWYRQAPGKERELVASISQSGDSTYYADSVKGRFTISRDNAKNTVYLQMNSLNPVDTAVYYCAAVQYGHRRGRVSVRRRLDYWGQGTQVTVSS | low polyreactivity |
| QVQLVESGVGLVQAGGSLRLSCAASGFTFKSYTMGWYRQAPGKERELVANISRRGGSTYYADSVKGRFTISRDTAKNTVYLQMNRLKPEDTAVYYCAADAYGFLYTTYRYFYWGQGTQVTVST | high polyreactivity |
| QVQLVESGGGLVQAGGSLRLSCAASGSIFWSYAMGWYRHAPGKESELVAAITYSGTSTYYADSVKGRFTISRDTAKNTVYLQMNSLKPEDTAVYYCAASPFSRSRNDYWGQGTQVTLSS | low polyreactivity |
| QVQLVESGGGLVQAGGSLRLSCAASGRTFEGNAMGWYRQAPGKERELVAAISWSGGSTYYANSVKGRFTISRDNAKNTVYLQMNSLKPEDTAVYYCAAVPVHTGSLYWGFTTGYDYWGQGTQVTVSS | low polyreactivity |
| QVQLVESGGRLVQAGGSLRLSCAASGRTFARNAMGWYRQAPGKERELVAAISWSGGSTYYADSVKGRFTISRDNAKNTVYLQMNSLKPEDTAVYYCAARICYYNYWGQGTQVTVSS | high polyreactivity |
| QVQLVESGGGLVQAGGSLRLSCAASGRTLSHYAMGWYRQAPGKERELVAAISQSGGSTRYADSVKGRFTISRDNAKNTVYLQMISLKPEDTAVYYCAVRQLYSYPGDRRGYYWGQGTQVTVSS | high polyreactivity |
| QVQLVESGGVLVQAGGSLRLSCAASGRTIWYYAMGWYRQAPGKERELVASITRSGGTTYADSVKGRFTISRDNAKNTVYLQMNSLKPEDTAVYYCAATRPRIPVYQNNYGYWGQGTQLTVSS | high polyreactivity |
| QVQREESGGGLVQAGGSLRLSCAASGSIFVGNAMGWYRQAPGKESELVAAITASGTSTYYADSVKGRFTISRDNAKNTVYLQMNSLKPEDTAVYYCNAVQLVYDQYRYDYWGQGTQVTVSS | high polyreactivity |
| QVQLVESGGGLVQAGGSLRLSCAASGSIFASYAMGWYRQAPGKERELVAAISRSGTSTRYADSVKGRFTISRDNAKNTVYLQMNSLKPEDTAVYYCAARWYVFFRKYDYWGQGTQVTVSS | high polyreactivity |
| QVQLVESGGGLVQAGGSLRLSCAASGSTFYSNAMGWYRQAPGKERELVAGISGSGGSTYYADSVKGRFTISRDNAKNTVYLQMNSLKPEDTAVYYCNARKTRSYFRFDSWGQGTQVTVSS | low polyreactivity |

| Sequence | polyreactivity (PSR sort gate) |
| --- | --- |
| QVQLVESGGGLVQAGGSLRLSCAASGLTFDQYVMGWYRQAPGKERELVAAISRRGGGTYYADSVKGRFTISRDNAKNTVYLQMNSLKPEDTAVYYCNTDQAWRSWRGNYPFLTGNYWGQGTQVTVSS | high polyreactivity |
| QFQLEESGGGLVQAGGSLRLSCAASGITFVDYAMGWYRQAPGKERELVAAITTGGSTNYADSVKGRFTISRDNAKNTVYLQMNSLKPEDTAVYYCNKRPVILYDYWGQGTQVTVSS | low polyreactivity |
| QVHLVESGGGLVQAGGSLRLRCAASGSTFEYNAMGWYRPAPGKERELVASSTNYADSVKGRFTISRDNAKNTVSLQMNSLKPEDTAVYYCSREQGVNRNHDYWVQGTQVTVSS | low polyreactivity |
| QVQLVESGGGLVQAGGSLRLSCAASGRIFYRYAMGWYRPAPGKERELVAAIRYSGGRTYYADSVKGRFTISRDNAKNTVYLQMISLKPEDTAVYYCAADGQWYYAPFRGGDYENDYWGQGTQVTVSS | low polyreactivity |
| QVQLVESGGGLVQAGGSLRLSCAASGLIFSAYAMGWYRQAPGKERELVAAISRRGTSTYYADSVKGRFTISRDNAKNTVYLQMNSLKPEDTGVYYCAADGYVFEGDYWGQGTQVTVSS | high polyreactivity |
| QVQLVESGGGLVQAGGSLRLSCAASGSNFAVYAMGWYRQAPGKERELVATIRWNGGSTYYADSVKGRFTISRDNAKNTVYLQMNSLKQEDTAVYYCAKEYSTYVSKKSAYRYYYWGQGTQVTVSS | high polyreactivity |
| QVQLVESGGGLVQAGGSLRLSCAASGFTFKPYTMGWYRQAPGKERELVAAISRSGGSTYYADSVKGRFTISRDNAKNTVYLQMNSLKPEDTAVYYCAKRGNSWYLGGSWGQGTQVTVSS | high polyreactivity |
| QVQLLESGRGLVQAGGTLRLSCAPSGRTFSVNAMGWYRQAPGKERELVAAISWDGGSTYYADSVKVRFTISRDNAKNTVYLQMNSLKQEDTAVYYCNKDLYYAYDYWGQGTQVTVSS | low polyreactivity |
| QVQLVESGGGLVQAGGSRRLSCAASGFTFLAYALGWYRQAPGKERELVAAISWDGGSTYYADSVKGRFTISRDNAKNTVYLQMNSLKPEDTAVYYCNRRSRRQGGYWGQGTQVTVSS | high polyreactivity |
| QVQLVESGGGLVQAGGSLRLSCAASGRTFWWYAMGWYRQAPGKERELVAGISGSTGTTHYADSVKGRFTISRDNAKNTVYLQMNSLKPEDTAGYYCAARRRYYRGFLFDYWGQGTQVTVSS | high polyreactivity |
| QVQLVESGGRLVQAGGSLRLSGAASVLTFNFNAMGWYRQAPGKERELVAANSYRAGSTYYADSVKGRFTISRDNAKNTVYLQMNSLKPEDTAVYYCAKPTYRFYWGDFDYWGQGTQVTVSS | low polyreactivity |
| QVQLVESGGGLVQAGGSLRLSCAASGFTYGRYAMGWYRQAPRKERELVAAISFSGGRTYYADSVKGRFTISRDNAKNTVYLQMKSLKPEDTAVYYCAARRRQEHVGRSSYARYDYWGQGTQVTVSA | high polyreactivity |
| QVQLVESGGGSLRLSCAASGLTFGGYTMGWSRQAPGKERELFAAISSSDSTNYADSVKGRFTISRDNAKNTVYLQMNSLKPEDTAVYYCAADSGQWCRFSSFGDEGDSWGQGTQVTVSS | low polyreactivity |
| QVQLVESGGGLVQAGGSLRLSCAASGFTFYRYAMGWYRQAPGKERELVAAITWSGGSTYYADSVKGRFTISRDNAKNTVYLQMNSLKPEDTAVYYCAASRWIFQVNDYDYWGQGTQETVSS | high polyreactivity |
| QVQLVESGGGLVQAGGSLRLSCAASGFTFAPYAMGWYRQAPGKERELVAAISSNGGSTYYADSVKGRFTISRDNAKNTVYLQMISMKPEYTAVYYCAVTSIGYTRYYYWGHGTQVTVSS | high polyreactivity |
| QVQLVESGGGLVQAGGSLRLSCAASGRTFVYYAMGWYRPAPGKERELVAAISSRGGSTYYADSVKGRFTISRDNAKNTVYLQMNSLKPEDTAVYYCAAVKGPERPTSPYDYWGQGTQVTVSS | high polyreactivity |
| QVQLVESGGGLVQAGGSLRLSCAASGRIFQYYAAMGWYRQAPGKERELVASIRATGGSTYYADSVKGRFTISRDNAKNTVYLQMNSLKPEDTAVYYCAARFAAKSLPAYDYWGQGTQVTVSS | low polyreactivity |
| QVQLVESGGGLVQAGGSLRLSCAASGSTLVLNAMGWYRQAPGKERELVAAISRGGGSTSYADSVKGRFTISRDNAKNTVYLQMNSLKPEDTAVYYCNAYTYYHANHEQGFGYWGQGTQVTVSS | low polyreactivity |
| QVQLVESGGGLVQAGGSLRLSCAASGLTFTGYAMGWYRQAPGKERELVAAISSRGGSTYYADSVKGRFTISRDTAKNTVYLQMNRLKPEDTAVYYCNAVVVVGRRDYWGQGTQVTVSS | high polyreactivity |
| QVQIVESGGGLVQAGGSLRLSCAASGRTFTHYAMGWYRQAPGKERELVAAISSGGGTYYADSVKGRFTIARDNAKKTVYLQMNSLKPEDTAVYYCNADYSNYLDPFRTYGYWGQGTQVTVSS | low polyreactivity |
